Results published in patent publication US20250376519A1 (JIANGSU HENGRUI PHARMACEUTICALS, published 2025).

Experiments:
[1] = molecular target: T1, human DLL3 (ACRO, DLL3-H52H4) (human, UniProt Q9NYJ7 27-492); test: SPR Biacore 8K, Ab captured on Protein A
T1 construct: Bought
T1 sequence: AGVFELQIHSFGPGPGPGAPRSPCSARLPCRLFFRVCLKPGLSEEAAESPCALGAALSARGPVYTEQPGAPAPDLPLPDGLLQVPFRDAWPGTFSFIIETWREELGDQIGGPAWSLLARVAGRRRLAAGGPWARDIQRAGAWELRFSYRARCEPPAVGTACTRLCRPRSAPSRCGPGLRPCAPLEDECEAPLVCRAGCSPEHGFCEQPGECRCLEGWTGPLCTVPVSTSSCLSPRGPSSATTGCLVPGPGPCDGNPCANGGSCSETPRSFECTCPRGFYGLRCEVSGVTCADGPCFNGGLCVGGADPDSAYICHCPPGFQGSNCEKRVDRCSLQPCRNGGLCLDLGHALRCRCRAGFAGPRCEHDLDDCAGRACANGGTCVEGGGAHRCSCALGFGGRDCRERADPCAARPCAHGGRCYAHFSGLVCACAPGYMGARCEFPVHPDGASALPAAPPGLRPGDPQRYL
Procedure, shortened: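 Antibodies captured on a Protein A chip for 18 s; DLL3 or CD3D&3E antigen flowed 180 s, then 600 s dissociation, with real-time detection. Regeneration used 10 mM glycine-HCl pH 1.5 between cycles. Kinetics were obtained by 1:1 model fitting.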

[2] = molecular target: T2, human DLL3 on cells (human, UniProt Q9NYJ7 27-618); test: flow cytometry, DLL3/H82 cells
T2 construct: Endogenous on H1184 and SHP77; Cell line is named under assay; also called H1184; DLL3/H82
T2 sequence: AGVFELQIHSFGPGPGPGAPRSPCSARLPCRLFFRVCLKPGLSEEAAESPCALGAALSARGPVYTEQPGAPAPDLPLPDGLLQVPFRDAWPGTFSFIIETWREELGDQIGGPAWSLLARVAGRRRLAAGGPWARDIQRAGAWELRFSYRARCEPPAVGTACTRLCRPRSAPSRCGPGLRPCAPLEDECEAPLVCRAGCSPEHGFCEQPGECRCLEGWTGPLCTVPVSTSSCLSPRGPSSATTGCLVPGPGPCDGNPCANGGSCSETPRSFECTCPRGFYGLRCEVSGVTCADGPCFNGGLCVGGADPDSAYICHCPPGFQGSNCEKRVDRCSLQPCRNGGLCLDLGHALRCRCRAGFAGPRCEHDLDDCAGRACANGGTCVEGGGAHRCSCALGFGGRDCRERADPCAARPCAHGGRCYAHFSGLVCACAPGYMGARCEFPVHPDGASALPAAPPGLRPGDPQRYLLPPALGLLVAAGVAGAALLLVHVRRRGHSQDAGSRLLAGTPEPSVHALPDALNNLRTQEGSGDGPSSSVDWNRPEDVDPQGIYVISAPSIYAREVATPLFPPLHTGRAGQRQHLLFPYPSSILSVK
Method: The plates were centrifuged at 300 g for 5 min, and the supernatant was removed. Different concentrations of test antibodies were added at 100 μL/well. The plates were incubated in the dark in a refrigerator at 4° C. for 1 h. After 3 centrifugal washes at 300 g, working concentrations of APC anti-human IgG Fc (BioLegend, 410712) or PE F(ab′)2-goat anti-human IgG (invitrogen, H10104) were added. The plates were incubated in the dark in a refrigerator at 4° C. for 40 min. After 3 centrifugal washes at 300 g, the geometric mean fluorescence intensity was measured on an Invitrogen flow cytometer, and the EC50 values for the binding of the antibodies to DLL3-expressing cells were calculated.

[3] = molecular target: T3, hCTLA4 (human, UniProt P16410 36-162, limits assumed); test: ELISA
T3 construct: bought

[4] = molecular target: T4, hPDL1 (human, UniProt Q9NZQ7 19-239); test: ELISA
T4 construct: bought
T4 sequence (Q9NZQ7 19-239 limits assumed): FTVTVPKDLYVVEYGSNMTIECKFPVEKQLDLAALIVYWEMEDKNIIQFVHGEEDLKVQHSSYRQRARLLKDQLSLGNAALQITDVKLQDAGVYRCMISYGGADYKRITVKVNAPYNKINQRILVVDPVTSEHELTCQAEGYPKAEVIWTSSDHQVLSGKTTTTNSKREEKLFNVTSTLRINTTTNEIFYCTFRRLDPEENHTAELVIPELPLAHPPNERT

T3 sequence (P16410 36-162 limits assumed): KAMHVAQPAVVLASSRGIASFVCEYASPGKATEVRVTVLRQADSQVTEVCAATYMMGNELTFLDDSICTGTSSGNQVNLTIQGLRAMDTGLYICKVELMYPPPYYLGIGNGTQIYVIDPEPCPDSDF

| Binder | Kd [1] [nM] | koff [1] [s⁻¹] | kon [1] [M⁻¹ s⁻¹] | EC50 [2] [nM] | Emax [2] | EC50 [3] [nM] | EC50 [4] [nM] |
| --- | --- | --- | --- | --- | --- | --- | --- |
| hu110L1H6 (antibody, human IgG1, kappa, V domains shown) VH: EVQLVQSGAEVKKPGASVKVSCKTSGYTFTDYYMNWVRQAPGQSLEWMGIINPYNVGTSYTQKFKGRVTITVDKSASTAYMELSSLRSEDTAVYYCARHFYDSSYLTYSTMDYWGQGTTVTVSS VL: DIVMTQSPDSLAVSLGERATINCKASENVGIFVSWYQQKPGQSPKLLIYGASNRYTGVPDRFSGSGSATDFTLTISSLQAEDVAVYYCGQSHSYPLTFGQGTKLEIKR | 0.102 | 5.32e-05 | 520000 | 1.66 | 4620 |  |  |
| hu110L2H1 (antibody, human IgG1, kappa, V domains shown) VH: EVQLVQSGAEVKKPGASVKVSCKASGYTFTDYYMNWVRQAPGQRLEWMGIINPYNGGTSYTQKFKGRVTITVDKSASTAYMELSSLRSEDTAVYYCARHFYDSSYLTYSTMDYWGQGTTVTVSS VL: NIVMTQSPKSLAVSLGERATINCKASENVGIFVSWYQQKPGQSPKLLIYGASNRYTGVPDRFSGSGSATDFTLTISSLQAEDVADYYCGQSHSYPLTFGQGTKLEIKR | 0.115 | 5.84e-05 | 509000 | 1.25 | 4720 |  |  |
| hu110L2H2 (antibody, human IgG1, kappa, V domains shown) VH: EVQLVQSGAEVKKPGASVKVSCKTSGYTFTDYYMNWVRQAPGQSLEWMGIINPYNGGTSYTQKFKGRVTITVDKSASTAYMELSSLRSEDTAVYYCARHFYDSSYLTYSTMDYWGQGTTVTVSS VL: NIVMTQSPKSLAVSLGERATINCKASENVGIFVSWYQQKPGQSPKLLIYGASNRYTGVPDRFSGSGSATDFTLTISSLQAEDVADYYCGQSHSYPLTFGQGTKLEIKR | 0.12 | 6.25e-05 | 521000 | 1.25 | 4750 |  |  |
| hu110L2H3 (antibody, human IgG1, kappa, V domains shown) VH: EVQLVQSGAEVKKPGASVKVSCKTSGYTFTDYYMNWVRQAPGQSLEWMGIINPYQGGTSYTQKFKGRVTITVDKSASTAYMELSSLRSEDTAVYYCARHFYDSSYLTYSTMDYWGQGTTVTVSS VL: NIVMTQSPKSLAVSLGERATINCKASENVGIFVSWYQQKPGQSPKLLIYGASNRYTGVPDRFSGSGSATDFTLTISSLQAEDVADYYCGQSHSYPLTFGQGTKLEIKR | 0.117 | 6.45e-05 | 550000 | 1.32 | 4570 |  |  |
| hu110L2H4 (antibody, human IgG1, kappa, V domains shown) VH: EVQLVQSGAEVKKPGASVKVSCKTSGYTFTDYYMNWVRQAPGQSLEWMGIINPYSGGTSYTQKFKGRVTITVDKSASTAYMELSSLRSEDTAVYYCARHFYDSSYLTYSTMDYWGQGTTVTVSS VL: NIVMTQSPKSLAVSLGERATINCKASENVGIFVSWYQQKPGQSPKLLIYGASNRYTGVPDRFSGSGSATDFTLTISSLQAEDVADYYCGQSHSYPLTFGQGTKLEIKR | 0.103 | 5.11e-05 | 496000 | 1.41 | 4600 |  |  |
| hu110L2H5 (antibody, human IgG1, kappa, V domains shown) VH: EVQLVQSGAEVKKPGASVKVSCKTSGYTFTDYYMNWVRQAPGQSLEWMGIINPYTGGTSYTQKFKGRVTITVDKSASTAYMELSSLRSEDTAVYYCARHFYDSSYLTYSTMDYWGQGTTVTVSS VL: NIVMTQSPKSLAVSLGERATINCKASENVGIFVSWYQQKPGQSPKLLIYGASNRYTGVPDRFSGSGSATDFTLTISSLQAEDVADYYCGQSHSYPLTFGQGTKLEIKR | 0.206 | 8.96e-05 | 434000 | 1.71 | 4670 |  |  |
| hu110L2H6 (antibody, human IgG1, kappa, V domains shown) VH: EVQLVQSGAEVKKPGASVKVSCKTSGYTFTDYYMNWVRQAPGQSLEWMGIINPYNVGTSYTQKFKGRVTITVDKSASTAYMELSSLRSEDTAVYYCARHFYDSSYLTYSTMDYWGQGTTVTVSS VL: NIVMTQSPKSLAVSLGERATINCKASENVGIFVSWYQQKPGQSPKLLIYGASNRYTGVPDRFSGSGSATDFTLTISSLQAEDVADYYCGQSHSYPLTFGQGTKLEIKR | 0.167 | 6.86e-05 | 411000 | 1.4 | 5190 |  |  |
| PL-1 (bispecific antibody) chain 1: not shown chain 2: DIVLTQSPASLAVSPGQRATITCRASESVSIHGTHLMHWYQQKPGQPPKLLIYAASKLESGVPARFSGSGSGTDFTLTINPVEAEDTANYYCQQSFEDPLTFGQGTKLEIKGGGGSGIPPKIECLPIDISIDEGKVLTVASAFTGEPTPEVTWSTGGRKIHSQEQGRFHIENTDDLTTLIIKDVQKQDGGLYTLTLRNEFGSDSATVNIHIRSI chain 3: not shown chain 4: not shown |  |  |  |  |  | 16.5 | 1.6 |
| PL-2 (bispecific antibody) chain 1: not shown chain 2: DIVLTQSPASLAVSPGQRATITCRASESVSIHGTHLMHWYQQKPGQPPKLLIYAASKLESGVPARFSGSGSGTDFTLTINPVEAEDTANYYCQQSFEDPLTFGQGTKLEIKGGGGSGIPPKIECLPIDISIDEGKVLTVASAFTGEPTPEVTWSTGGRKIHSQEQGRFHIENTDDSTTLTIKDVQKQDGGLYTLTLRNEFGSDSATVNIHIRSI chain 3: not shown chain 4: not shown |  |  |  |  |  | 8 | 0.5 |
| PL-3 (bispecific antibody) chain 1: not shown chain 2: DIVLTQSPASLAVSPGQRATITCRASESVSIHGTHLMHWYQQKPGQPPKLLIYAASKLESGVPARFSGSGSGTDFTLTINPVEAEDTANYYCQQSFEDPLTFGQGTKLEIKGGGGSGIPPKIECLPIDISIDEGKCLTVASAFTGEPTPEVTWSTGGRKIHSQEQGRFHIENTDDSTTLTIKDVQKQDGGLYTLTLRNEFGSDSATVNIHIRSI chain 3: not shown chain 4: not shown |  |  |  |  |  | 7.9 | 0.6 |
| PL-4 (bispecific antibody) chain 1: not shown chain 2: DIVLTQSPASLAVSPGQRATITCRASESVSIHGTHLMHWYQQKPGQPPKLLIYAASKLESGVPARFSGSGSGTDFTLTINPVEAEDTANYYCQQSFEDPLTFGQGTKLEIKGGGGSGIPPKIECLPIDISIDEGKVLTVASCFTGEPTPEVTWSTGGRKIHSQEQGRFHIENTDDSTTLTIKDVQKQDGGLYTLTLRNEFGSDSATVNIHIRSI chain 3: not shown chain 4: not shown |  |  |  |  |  | 6.5 | 0.7 |
| PL-5 (bispecific antibody) chain 1: not shown chain 2: DIVLTQSPASLAVSPGQRATITCRASESVSIHGTHLMHWYQQKPGQPPKLLIYAASKLESGVPARFSGSGSGTDFTLTINPVEAEDTANYYCQQSFEDPLTFGQGTKLEIKGGGGSGIPPKIECLPIDISIDEGKVLTVASAFTGEPTPEVTWSTGGRKIHSQEQGRFHIENTDDSTTLTIKDVQKQDGGLYTLTLRNEFGSDSATVNIHIRSI chain 3: not shown chain 4: not shown |  |  |  |  |  | 6.7 | 0.7 |
| PL-6 (bispecific antibody) chain 1: not shown chain 2: DIVLTQSPASLAVSPGQRATITCRASESVSIHGTHLMHWYQQKPGQPPKLLIYAASKLESGVPARFSGSGSGTDFTLTINPVEAEDTANYYCQQSFEDPLTFGQGTKLEIKGGGGSGIPPKIECLPIDISIDEGKCLTVASAFTGEPTPEVTWSTGGRKIHSQEQGRFHIENTDDSTTLTIKDVQKQDGGLYTLTLRNEFGSDSATVNIHIRSI chain 3: not shown chain 4: not shown |  |  |  |  |  | 5.3 | 0.8 |
| PL-7 (bispecific antibody) chain 1: not shown chain 2: DIVLTQSPASLAVSPGQRATITCRASESVSIHGTHLMHWYQQKPGQPPKLLIYAASKLESGVPARFSGSGSGTDFTLTINPVEAEDTANYYCQQSFEDPLTFGQGTKLEIKGGGGSGIPPKIECLPIDISIDEGKVLTVASCFTGEPTPEVTWSTGGRKIHSQEQGRFHIENTDDSTTLTIKDVQKQDGGLYTLTLRNEFGSDSATVNIHIRSI chain 3: not shown chain 4: not shown |  |  |  |  |  | 7.3 | 0.5 |
